# Ends that are not written are not given here.
# Assays:
# human furin [1] = molecular target: T1, human furin (human, UniProt P09958); test: other, pH 7.0, 37C
# human furin [2] = molecular target: T1, human furin; test: other, pH 7.0, 37C; remark: listed apart in the source
# T1 sequence (P09958 108-715): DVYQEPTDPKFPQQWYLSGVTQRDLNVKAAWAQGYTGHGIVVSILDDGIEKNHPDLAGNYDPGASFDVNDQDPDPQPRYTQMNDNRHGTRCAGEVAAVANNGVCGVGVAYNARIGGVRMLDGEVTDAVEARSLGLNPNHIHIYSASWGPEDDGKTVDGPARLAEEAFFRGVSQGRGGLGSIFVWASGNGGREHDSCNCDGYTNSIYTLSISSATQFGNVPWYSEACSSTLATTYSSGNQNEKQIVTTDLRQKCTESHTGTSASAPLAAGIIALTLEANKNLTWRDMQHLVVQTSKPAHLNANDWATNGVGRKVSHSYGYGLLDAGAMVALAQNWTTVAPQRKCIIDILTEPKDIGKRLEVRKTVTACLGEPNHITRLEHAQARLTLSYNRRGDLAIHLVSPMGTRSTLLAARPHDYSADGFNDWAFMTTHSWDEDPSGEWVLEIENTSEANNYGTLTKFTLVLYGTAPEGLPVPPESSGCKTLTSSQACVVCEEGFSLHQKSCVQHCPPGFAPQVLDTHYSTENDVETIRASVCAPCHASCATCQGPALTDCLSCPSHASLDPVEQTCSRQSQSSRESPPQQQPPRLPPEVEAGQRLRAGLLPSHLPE
Binder,Ki (trypsin),Ki (human furin [1]),binding result (human furin [2])
"KAAAK (not fully specified (N-terminus, C-terminus); printed as C16-KAAAK-C16) [C16-KAAAK-C16]",40.3 µM,1.72 µM,–
KAAAAK (not fully specified) [C16-KAAAAK-C16],–,1.75 µM,–
"Lys-Ala-Lys (not fully specified (N-terminus, C-terminus); printed as C16-KAK-C16) [C16-KAK-C16]",15.2 µM,0.54 µM,–
"KAAK (not fully specified (N-terminus, C-terminus); printed as C16-KAAK-C16) [C16-KAAK-C16]",–,0.97 µM,–

# Next, values leading:
Ki (trypsin),Ki (human furin [1]),binding result (human furin [2]),Binder
84.7 µM,–,no binding,"Lys-Lys (not fully specified (N-terminus, C-terminus); printed as C16-KK-C16) [C16-KK-C16]"
41.6 µM,–,–,"Lys-Gly-Lys (not fully specified (N-terminus, C-terminus); printed as C16-KGK-C16) [C16-KGK-C16]"
11.1 µM,–,–,KGGGK (not fully specified) [C16-KGGGK-C16]

# — patent publication US20190255141 (published 2019)
